In paper PMC2779847 one finds stoichiometry N data, which are given here for two substances.

One may read the stoichiometry N as a count of units in the complex or per binding partner.

The target in assay [1] is MsDps2 protein (second Dps homologue of Mycobacterium smegmatis) (Mycobacterium smegmatis). As to the kind of experiment: native gel or EMSA; 10% native gel; BSA and ferritin as markers; oligomeric state of the purified protein. Background: A gel shift assay detects complexes by their altered migration in electrophoresis.
For assay [2] the target is unchanged. The assay is described as follows: negative-stain transmission electron microscopy; MsDps2 in 20 mM Tris, 200 mM NaCl on copper grids, stained with uranyl acetate, 80 kV, 50,000x.
In assay [3] the target is MsDps2ΔN15 (MsDps2 lacking 15 amino acids from the N-terminus) (Mycobacterium smegmatis). The assay is described as follows: native gel or EMSA; 10% native gel; BSA and ferritin as markers; oligomeric state of the purified protein.

On to “MsDps2 protein (second Dps homologue of Mycobacterium smegmatis) (natural protein)”, for which the stoichiometry N in assay [1] and in assay [2] was 12 throughout.

In assay [3], “MsDps2ΔN15 (MsDps2 lacking 15 amino acids from the N-terminus) (domain or fragment)” registered a stoichiometry N of 12.
